Experimental data: paper PMC2704562 (Biochimica et biophysica acta, 2009)
Where a chain is given by its changes, count along the chain named. Numbers in names are those of the source.

B1: Methanococcus jannaschii methionine adenosyltransferase, wild type (enzyme, UniProt Q58605 1-406, looked up)
chain: MRNIIVKKLDVEPIEERPTEIVERKGLGHPDSICDGIAESVSRALCKMYMEKFGTILHHNTDQVELVGGHAYPKFGGGVMVSPIYILLSGRATMEILDKEKNEVIKLPVGTTAVKAAKEYLKKVLRNVDVDKDVIIDCRIGQGSMDLVDVFERQKNEVPLANDTSFGVGYAPLSTTERLVLETERFLNSDELKNEIPAVGEDIKVMGLREGKKITLTIAMAVVDRYVKNIEEYKEVIEKVRKKVEDLAKKIADGYEVEIHINTADDYERESVYLTVTGTSAEMGDDGSVGRGNRVNGLITPFRPMSMEAASGKNPVNHVGKIYNILANLIANDIAKLEGVKECYVRILSQIGKPINEPKALDIEIITEDSYDIKDIEPKAKEIANKWLDNIMEVQKMIVEGKVTTF
B2: Mj-MAT W387F-Y72W (enzyme, Methanococcus jannaschii, UniProt Q58605 1-406, looked up)
chain: B1 chain with Y72W, W387F
B3: Mj-MAT W387F-Y170W (enzyme, Methanococcus jannaschii, UniProt Q58605 1-406, looked up)
chain: B1 chain with Y170W, W387F
B4: Mj-MAT W387F (enzyme, Methanococcus jannaschii, UniProt Q58605 1-406, looked up)
chain: B1 chain with W387F
B5: Mj-MAT W387F-Y323W (enzyme, Methanococcus jannaschii, UniProt Q58605 1-406, looked up)
chain: B1 chain with Y323W, W387F
B6: Mj-MAT W387F-Y344W (enzyme, Methanococcus jannaschii, UniProt Q58605 1-406, looked up)
chain: B1 chain with Y344W, W387F
B7: Mj-MAT W387F-Y267W (enzyme, Methanococcus jannaschii, UniProt Q58605 1-406, looked up)
chain: B1 chain with Y267W, W387F
B8: Mj-MAT W387F-Y255W (enzyme, Methanococcus jannaschii, UniProt Q58605 1-406, looked up)
chain: B1 chain with Y255W, W387F
B9: Mj-MAT W387F-Y85W (enzyme, Methanococcus jannaschii, UniProt Q58605 1-406, looked up)
chain: B1 chain with Y85W, W387F
B10: Mj-MAT W387F-Y120W (enzyme, Methanococcus jannaschii, UniProt Q58605 1-406, looked up)
chain: B1 chain with Y120W, W387F
B11: Mj-MAT W387F-Y233W (enzyme, Methanococcus jannaschii, UniProt Q58605 1-406, looked up)
chain: B1 chain with Y233W, W387F
B12: Mj-MAT W387F-Y226W (enzyme, Methanococcus jannaschii, UniProt Q58605 1-406, looked up)
chain: B1 chain with Y226W, W387F
B13: Mj-MAT W387F-Y273W (enzyme, Methanococcus jannaschii, UniProt Q58605 1-406, looked up)
chain: B1 chain with Y273W, W387F
B14: Mj-MAT W387F-Y49W (enzyme, Methanococcus jannaschii, UniProt Q58605 1-406, looked up)
chain: B1 chain with Y49W, W387F
B15: Mj-MAT W387F-Y371W (enzyme, Methanococcus jannaschii, UniProt Q58605 1-406, looked up)
chain: B1 chain with Y371W, W387F

Target: the molecule itself
Assay: SEC
Details: not given

| Protein | stoichiometry N |
| --- | --- |
| B1 | 2 |

Each protein was assayed on Nc1ncnc2c1ncn2[C@@H]1O[C@H](COP(=O)(O)OP(=O)(O)OP(=O)(O)O)[C@@H](O)[C@H]1O (assay: radiometric S-adenosylmethionine formation assay, Michaelis-Menten fit). Details: 0.5 mM [methyl-14C]-L-methionine, ATP 0.05-2.5 mM, 55 °C.
Format: biochemical, Methanocaldococcus jannaschii

| Protein | Km [µM] | kcat [s⁻¹] |
| --- | --- | --- |
| B1 | 190 ± 30 | 1.46 ± 0.05 |
| B2 | 110 ± 30 | 1.62 ± 0.15 |
| B3 | 100 ± 20 | 2.39 ± 0.03 |
| B4 | 110 ± 30 | 1.85 ± 0.08 |

Target: the molecule itself
Assay: AUC
Details: not given

| Protein | stoichiometry N |
| --- | --- |
| B5 | 2 |
| B6 | 2 |
| B7 | 2 |
| B8 | 2 |
| B2 | 2 |
| B9 | 2 |
| B10 | 2 |
| B11 | 2 |
| B12 | 2 |
| B3 | 2 |
| B13 | 2 |
| B14 | 2 |
| B15 | 2 |
| B4 | 2 |
